Test results as given in the supplement of paper PMC10065799, “High-throughput profiling of sequence recognition by tyrosine kinases and SH2 domains using bacterial peptide display” (eLife, 2023).

Legend:
Grb2 SH2 = Grb2 SH2 (UniProt P62993); experiment: SH2 binding enrichment of the phosphorylated peptide, bacterial display (enrichment ratio); higher = better substrate or ligand; peptides without Tyr show the background
c-Src SH2 = experiment: as above
SHP2-C SH2 = experiment: as above
Hck = Hck (UniProt P08631); experiment: phosphorylation enrichment, bacterial display (enrichment ratio); higher = better substrate or ligand; peptides without Tyr show the background
c-Src = experiment: as above
Jak2 = Jak2 (UniProt O60674); experiment: as above
Sequence of Jak2 (O60674 whole entry, looked up): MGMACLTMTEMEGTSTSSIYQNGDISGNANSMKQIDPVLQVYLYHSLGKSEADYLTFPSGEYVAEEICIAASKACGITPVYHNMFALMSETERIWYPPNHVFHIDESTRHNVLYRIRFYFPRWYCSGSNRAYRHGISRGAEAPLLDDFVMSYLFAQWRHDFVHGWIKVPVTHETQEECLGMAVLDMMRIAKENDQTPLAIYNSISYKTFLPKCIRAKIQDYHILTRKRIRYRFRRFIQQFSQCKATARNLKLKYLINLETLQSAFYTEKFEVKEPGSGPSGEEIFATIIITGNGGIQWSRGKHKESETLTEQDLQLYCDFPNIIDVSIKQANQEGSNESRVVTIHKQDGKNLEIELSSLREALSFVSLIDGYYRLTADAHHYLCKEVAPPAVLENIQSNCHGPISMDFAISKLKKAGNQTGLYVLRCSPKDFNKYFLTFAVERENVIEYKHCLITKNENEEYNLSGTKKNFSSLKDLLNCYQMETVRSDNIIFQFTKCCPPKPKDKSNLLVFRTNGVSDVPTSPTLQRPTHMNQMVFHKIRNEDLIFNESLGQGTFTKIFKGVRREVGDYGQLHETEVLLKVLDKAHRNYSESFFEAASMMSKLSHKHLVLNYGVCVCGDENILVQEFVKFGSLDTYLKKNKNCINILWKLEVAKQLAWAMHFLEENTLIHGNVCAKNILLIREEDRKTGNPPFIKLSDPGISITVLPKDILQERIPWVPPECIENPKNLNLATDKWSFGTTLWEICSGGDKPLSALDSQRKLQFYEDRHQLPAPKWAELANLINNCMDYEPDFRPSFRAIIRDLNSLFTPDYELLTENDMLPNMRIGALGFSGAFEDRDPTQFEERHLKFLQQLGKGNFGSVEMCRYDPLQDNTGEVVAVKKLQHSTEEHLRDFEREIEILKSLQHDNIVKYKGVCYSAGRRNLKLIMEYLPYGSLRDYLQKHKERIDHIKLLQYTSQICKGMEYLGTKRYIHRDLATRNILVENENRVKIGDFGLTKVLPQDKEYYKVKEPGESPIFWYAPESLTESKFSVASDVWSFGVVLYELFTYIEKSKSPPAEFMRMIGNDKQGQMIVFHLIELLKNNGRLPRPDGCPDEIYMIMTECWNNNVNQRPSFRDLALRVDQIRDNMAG

FGFR3 = FGFR3 (UniProt P22607); experiment: as above
EPHB2 = EPHB2 (UniProt P29323); experiment: as above
Sequence of EPHB2 (P29323 whole entry, looked up): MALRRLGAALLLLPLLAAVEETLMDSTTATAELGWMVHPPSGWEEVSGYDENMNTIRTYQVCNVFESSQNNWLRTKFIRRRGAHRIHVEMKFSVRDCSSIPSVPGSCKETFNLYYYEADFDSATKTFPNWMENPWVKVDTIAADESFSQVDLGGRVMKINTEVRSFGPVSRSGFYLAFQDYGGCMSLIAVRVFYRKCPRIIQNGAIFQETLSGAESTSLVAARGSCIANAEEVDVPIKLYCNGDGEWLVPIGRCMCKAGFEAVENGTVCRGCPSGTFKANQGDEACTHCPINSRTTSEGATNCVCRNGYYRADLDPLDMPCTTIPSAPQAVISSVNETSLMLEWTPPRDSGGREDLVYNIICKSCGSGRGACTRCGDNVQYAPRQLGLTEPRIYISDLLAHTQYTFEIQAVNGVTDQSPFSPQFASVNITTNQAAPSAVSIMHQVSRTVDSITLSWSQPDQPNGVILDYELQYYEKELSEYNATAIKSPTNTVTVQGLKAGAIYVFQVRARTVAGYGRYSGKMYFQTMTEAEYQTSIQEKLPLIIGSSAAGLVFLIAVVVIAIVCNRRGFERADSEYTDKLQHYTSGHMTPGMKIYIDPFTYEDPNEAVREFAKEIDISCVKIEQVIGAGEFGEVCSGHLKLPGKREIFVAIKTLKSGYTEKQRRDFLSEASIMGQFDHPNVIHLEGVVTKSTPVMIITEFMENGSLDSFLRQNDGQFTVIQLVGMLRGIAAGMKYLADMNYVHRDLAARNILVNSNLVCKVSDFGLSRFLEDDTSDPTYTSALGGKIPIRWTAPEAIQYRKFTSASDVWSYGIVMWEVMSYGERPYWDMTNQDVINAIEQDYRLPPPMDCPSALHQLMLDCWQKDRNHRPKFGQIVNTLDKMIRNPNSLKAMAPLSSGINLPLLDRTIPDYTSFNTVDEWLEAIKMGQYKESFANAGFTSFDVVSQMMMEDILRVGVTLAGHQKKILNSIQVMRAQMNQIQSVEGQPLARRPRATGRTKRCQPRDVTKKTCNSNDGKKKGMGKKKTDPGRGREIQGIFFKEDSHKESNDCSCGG

c-Abl (mouse) = experiment: as above
AncSZ = experiment: as above
Fes = Fes (UniProt P07332); experiment: as above
Sequence of Fes (P07332 whole entry, looked up): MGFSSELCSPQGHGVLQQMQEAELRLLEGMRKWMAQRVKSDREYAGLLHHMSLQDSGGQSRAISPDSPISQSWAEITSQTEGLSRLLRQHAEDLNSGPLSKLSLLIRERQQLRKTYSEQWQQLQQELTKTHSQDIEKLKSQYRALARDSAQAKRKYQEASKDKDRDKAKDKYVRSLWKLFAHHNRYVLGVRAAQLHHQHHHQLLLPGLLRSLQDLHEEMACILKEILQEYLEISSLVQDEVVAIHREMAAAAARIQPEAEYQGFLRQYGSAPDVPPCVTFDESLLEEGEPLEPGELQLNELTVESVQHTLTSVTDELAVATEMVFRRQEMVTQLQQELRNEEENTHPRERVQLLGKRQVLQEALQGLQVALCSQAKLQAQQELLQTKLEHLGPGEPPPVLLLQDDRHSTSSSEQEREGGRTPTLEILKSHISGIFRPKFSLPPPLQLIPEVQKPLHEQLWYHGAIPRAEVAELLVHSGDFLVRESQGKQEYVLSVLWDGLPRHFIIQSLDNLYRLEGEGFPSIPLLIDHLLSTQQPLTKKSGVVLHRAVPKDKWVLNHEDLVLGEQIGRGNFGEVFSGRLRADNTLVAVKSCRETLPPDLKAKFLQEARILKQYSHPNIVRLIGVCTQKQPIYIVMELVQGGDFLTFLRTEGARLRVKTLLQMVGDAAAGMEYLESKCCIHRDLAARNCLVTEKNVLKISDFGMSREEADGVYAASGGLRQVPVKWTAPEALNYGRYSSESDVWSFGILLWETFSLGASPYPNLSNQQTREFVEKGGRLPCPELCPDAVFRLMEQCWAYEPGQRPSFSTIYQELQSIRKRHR

Fyn = Fyn (UniProt P06241); experiment: as above
MERTK = MERTK (UniProt Q12866); experiment: as above
Sequence of MERTK (Q12866 whole entry, looked up): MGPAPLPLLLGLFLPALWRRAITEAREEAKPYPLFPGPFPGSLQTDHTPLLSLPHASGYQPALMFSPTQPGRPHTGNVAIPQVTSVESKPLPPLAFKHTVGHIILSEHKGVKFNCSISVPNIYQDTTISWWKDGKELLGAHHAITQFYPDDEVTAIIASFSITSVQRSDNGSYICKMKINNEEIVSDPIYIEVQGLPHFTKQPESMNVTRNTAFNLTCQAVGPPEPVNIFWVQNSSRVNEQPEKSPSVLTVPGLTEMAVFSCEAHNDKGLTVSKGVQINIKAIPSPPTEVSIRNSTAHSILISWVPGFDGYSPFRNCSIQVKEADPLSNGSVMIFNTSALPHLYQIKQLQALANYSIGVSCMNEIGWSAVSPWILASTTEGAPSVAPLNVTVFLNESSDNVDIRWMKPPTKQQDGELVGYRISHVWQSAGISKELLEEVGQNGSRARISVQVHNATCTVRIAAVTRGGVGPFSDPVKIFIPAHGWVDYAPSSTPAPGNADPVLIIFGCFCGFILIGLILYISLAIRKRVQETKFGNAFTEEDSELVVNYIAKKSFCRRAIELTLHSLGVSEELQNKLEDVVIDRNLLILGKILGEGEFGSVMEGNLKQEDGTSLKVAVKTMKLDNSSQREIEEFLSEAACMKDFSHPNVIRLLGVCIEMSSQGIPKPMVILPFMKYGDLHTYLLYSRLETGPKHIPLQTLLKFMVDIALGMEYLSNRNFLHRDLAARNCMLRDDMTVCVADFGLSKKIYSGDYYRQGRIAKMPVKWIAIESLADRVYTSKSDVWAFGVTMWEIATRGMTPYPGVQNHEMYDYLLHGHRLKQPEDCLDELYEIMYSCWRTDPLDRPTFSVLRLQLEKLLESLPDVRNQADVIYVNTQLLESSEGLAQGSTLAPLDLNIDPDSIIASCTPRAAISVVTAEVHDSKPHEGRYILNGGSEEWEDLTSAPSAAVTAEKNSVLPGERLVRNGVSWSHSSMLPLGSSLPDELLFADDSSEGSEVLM

EPHB1 = EPHB1 (UniProt P54762); experiment: as above
FGFR1 = FGFR1 (UniProt P11362); experiment: as above
Sequence of FGFR1 (P11362 whole entry, looked up): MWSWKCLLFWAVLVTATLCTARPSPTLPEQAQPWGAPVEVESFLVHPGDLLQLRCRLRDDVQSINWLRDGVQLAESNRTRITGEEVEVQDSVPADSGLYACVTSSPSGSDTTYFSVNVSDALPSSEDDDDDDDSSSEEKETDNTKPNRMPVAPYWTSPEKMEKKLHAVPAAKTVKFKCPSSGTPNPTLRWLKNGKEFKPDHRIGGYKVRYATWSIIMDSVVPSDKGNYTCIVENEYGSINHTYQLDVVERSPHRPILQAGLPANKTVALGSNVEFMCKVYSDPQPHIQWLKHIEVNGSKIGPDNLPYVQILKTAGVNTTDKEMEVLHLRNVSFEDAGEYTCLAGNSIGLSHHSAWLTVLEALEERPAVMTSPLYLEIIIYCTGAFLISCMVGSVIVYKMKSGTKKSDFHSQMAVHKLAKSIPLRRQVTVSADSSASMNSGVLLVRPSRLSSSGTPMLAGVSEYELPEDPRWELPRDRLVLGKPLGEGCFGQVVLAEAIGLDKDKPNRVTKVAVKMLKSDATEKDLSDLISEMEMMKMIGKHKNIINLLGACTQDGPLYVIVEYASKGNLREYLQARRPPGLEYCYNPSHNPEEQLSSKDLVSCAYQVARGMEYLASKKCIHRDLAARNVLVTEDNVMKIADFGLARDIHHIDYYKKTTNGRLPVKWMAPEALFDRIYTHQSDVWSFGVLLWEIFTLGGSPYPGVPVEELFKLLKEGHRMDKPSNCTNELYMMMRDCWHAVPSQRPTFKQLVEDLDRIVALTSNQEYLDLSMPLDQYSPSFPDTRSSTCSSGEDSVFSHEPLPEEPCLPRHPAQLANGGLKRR

Fer (mouse) = experiment: as above
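Throughout, for SH2 binding enrichment of the phosphorylated peptide, bacterial display: peptide library displayed on the E. coli surface as eCPX fusions, selected cells deep-sequenced, score is each peptide's frequency after selection divided by its frequency in the input.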
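Throughout, for phosphorylation enrichment, bacterial display: 11-residue human phosphosite peptides and single-mutation variants displayed on the E. coli surface, counted by deep sequencing, each peptide's frequency after selection divided by its frequency in the unselected input library; frequency after pTyr selection over input frequency; kinase dosed for 20-30% of maximal phosphorylation in three min.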

Sequence of Grb2 SH2 (P62993 whole entry, looked up): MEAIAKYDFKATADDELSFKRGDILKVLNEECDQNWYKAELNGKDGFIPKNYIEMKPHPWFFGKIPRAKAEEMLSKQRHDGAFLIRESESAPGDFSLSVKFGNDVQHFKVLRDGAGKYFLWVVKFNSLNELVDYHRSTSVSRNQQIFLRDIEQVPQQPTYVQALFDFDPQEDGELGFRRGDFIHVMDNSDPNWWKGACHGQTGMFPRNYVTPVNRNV

| Sequence | SH2 binding enrichment (Grb2 SH2) | SH2 binding enrichment (c-Src SH2) | SH2 binding enrichment (SHP2-C SH2) | phosphorylation enrichment (Hck) | phosphorylation enrichment (c-Src) | phosphorylation enrichment (Jak2) | phosphorylation enrichment (FGFR3) | phosphorylation enrichment (EPHB2) | phosphorylation enrichment (c-Abl (mouse)) | phosphorylation enrichment (AncSZ) | phosphorylation enrichment (Fes) | phosphorylation enrichment (Fyn) | phosphorylation enrichment (MERTK) | phosphorylation enrichment (EPHB1) | phosphorylation enrichment (FGFR1) | phosphorylation enrichment (Fer (mouse)) |
| --- | --- | --- | --- | --- | --- | --- | --- | --- | --- | --- | --- | --- | --- | --- | --- | --- |
| TFSPPYFHRNC [HGD_Y333_R330S_YF] | 8.96 | 2.42 | 1.18 | 0.539 | 1.01 | 2.21 | 0.83 | 1.08 | 0.878 | 1.81 | 0.808 | 0.363 | 0.718 | 0.268 | 0.535 | 0.483 |
| TGQEDYDRLRP [RAC1_Y64_A59T] | 0.74 | 0.528 | 0.746 | 0.836 | 0.603 | 1.02 | 0.732 | 0.94 | 0.778 | 1.34 | 1.17 | 0.756 | 0.498 | 0.781 | 0.754 | 0.563 |
| TGSFTYEAVEL [MTMR14_Y462] | 0.664 | 0.653 | 0.768 | 1.78 | 2.45 | 1.31 | 0.711 | 3.89 | 0.801 | 1.77 | 1.24 | 2.21 | 1.87 | 6.56 | 0.466 | 13.1 |
| TINPIYEHVGF [CHN1_Y143_YF] | 0.83 | 0.518 | 0.69 | 11.6 | 9.42 | 1.18 | 0.802 | 23.4 | 12.5 | 1.02 | 9.52 | 12.6 | 11.7 | 19.7 | 0.739 | 18.2 |
| TKHTFYKQPMF [GBA_Y451_D448H] | 1.04 | 0.941 | 1.13 | 0.475 | 0.377 | 0.49 | 0.482 | 0.558 | 0.522 | 1 | 0.769 | 0.478 | 0.441 | 0.429 | 0.539 | 0.44 |
| TLCLCYKEIEE [ATP8B1_Y658] | 0.921 | 1.29 | 0.937 | 0.733 | 0.624 | 1.36 | 1.05 | 0.825 | 0.886 | 1.63 | 1.96 | 0.521 | 0.618 | 1.05 | 0.592 | 0.704 |
| TLNFFYQQVKS [PTK2_Y148] | 0.802 | 0.885 | 0.768 | 0.471 | 0.361 | 1 | 0.849 | 0.658 | 0.606 | 1.15 | 1.15 | 0.516 | 0.366 | 0.68 | 0.471 | 0.575 |
| TLQSMYGCDMG [HLA-B_Y123_V127M] | 0.916 | 0.757 | 0.485 | 0.609 | 0.689 | 1.2 | 0.955 | 0.823 | 1.15 | 0.939 | 1.43 | 0.597 | 0.63 | 0.709 | 0.8 | 0.599 |
| TLSGIYQYIIA [FOXL2_Y81] | 1.22 | 1.49 | 1.87 | 7.53 | 4.81 | 1.09 | 8.01 | 12.2 | 4.23 | 1.54 | 5.1 | 6.05 | 9.32 | 12.9 | 11.1 | 13.9 |
| TNFRFYLRSLE [MTM1_Y71_L70F_YF] | 0.772 | 0.536 | 0.89 | 0.633 | 0.455 | 1.57 | 0.964 | 0.611 | 0.931 | 1.3 | 1.64 | 0.397 | 0.381 | 0.66 | 0.548 | 0.558 |
| TNQVICLNPPI [DYNC1H1_Y970_Y970C] | 0.788 | 0.477 | 0.619 | 0.495 | 0.446 | 0.892 | 0.62 | 0.54 | 1.17 | 0.842 | 0.921 | 0.459 | 0.405 | 0.589 | 0.53 | 0.458 |
| TPGPNYCPGYN [USH2A_Y463_R464C] | 1.68 | 0.937 | 0.501 | 0.466 | 0.35 | 0.853 | 0.616 | 0.551 | 0.429 | 0.694 | 1.17 | 0.623 | 0.379 | 0.468 | 0.504 | 0.497 |
| TQRPHYKGGGG [TYROBP_Y112_Y111H] | 1.55 | 1.27 | 1.39 | 0.535 | 0.454 | 0.676 | 0.76 | 0.587 | 0.97 | 0.558 | 0.686 | 0.496 | 0.433 | 0.349 | 0.45 | 0.565 |
| TRDVNYGWIIH [MT-CYB_Y75_R80H] | 0.99 | 0.522 | 1.23 | 0.523 | 0.524 | 1.15 | 0.736 | 1.14 | 0.908 | 1.06 | 1.11 | 0.508 | 1.98 | 0.938 | 0.703 | 4.76 |
| TRNREYDDIDD [TTYH2_Y424_D423E] | 0.589 | 0.545 | 0.358 | 0.609 | 0.581 | 0.57 | 0.693 | 0.496 | 0.54 | 0.904 | 0.789 | 0.585 | 0.559 | 0.53 | 0.548 | 0.533 |
| TRRSSYEDSSL [HNF4A_Y144] | 0.822 | 0.51 | 0.531 | 0.457 | 0.447 | 0.465 | 0.57 | 0.529 | 0.402 | 1.2 | 0.707 | 0.53 | 0.5 | 0.379 | 0.42 | 0.447 |
